First the molecules themselves.
B1: INTS3 (parent)
chain: KKREFRFHPIKETVVEEPVDITPY
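Note: lentivirally expressed fusions sorted by FACS into six bins by GFP to DsRed ratio, PSI derived from sequencing read proportions per bin multiplied by bin number.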

In the series the parent is B1. Put plainly: protein stability index of a GFP-peptide fusion (GPS, HEK-293T) (PSI 1-6); higher = more stable. To be noted: c terminus: a fixed tail appended.
Consider KKREFRFHPIKETVVEEPPDITPY [V19P], for which the protein stability index is 2.06. As for KKREFRFHPIKETVVEEPLDITPY [V19L], the figure is 1.7.

Take KKREFRFHPIKETVVEEPHDITPY [V19H]: the protein stability index amounted to 1.76.

Turning to KKREFRFHPIKETVVEEPKDITPY [V19K], the protein stability index came out at 1.88. KKREFRFHPIKETVVEEPQDITPY [V19Q]: the protein stability index was found to be 1.8. Take KKREFRFHPIKETVVEEPEDITPY [V19E]: the protein stability index worked out at 2.28. As for KKREFRFHPIKETVVEEPSDITPY [V19S], the protein stability index turned out to be 2.25. The same measure for KKREFRFHPIKETVVEEPFDITPY [V19F]: 1.77; for KKREFRFHPIKETVVEEPIDITPY [V19I]: 1.51. With KKREFRFHPIKETVVEEPGDITPY [V19G], the protein stability index came out at 1.98. On to KKREFRFHPIKETVVEEPTDITPY [V19T], for which the protein stability index came to 1.88. Consider KKREFRFHPIKETVVEEPADITPY [V19A], for which the protein stability index came out at 2.67. The same measure for KKREFRFHPIKETVVEEPWDITPY [V19W]: 1.38; for KKREFRFHPIKETVVEEPCDITPY [V19C]: 2.01. For KKREFRFHPIKETVVEEPNDITPY [V19N], the protein stability index was 2.02.

Consider KKREFRFHPIKETVVEEPRDITPY [V19R], for which the protein stability index was found to be 2.37. In the case of KKREFRFHPIKETVVEEPYDITPY [V19Y], the protein stability index was found to be 2.28. For KKREFRFHPIKETVVEEPDDITPY [V19D], the protein stability index amounted to 2.13. Consider KKREFRFHPIKETVVEEPMDITPY [V19M], for which the protein stability index is 2.23. Take KKREFRFHPIKETVVEEPVKITPY [D20K]: the protein stability index is 1.05. As for KKREFRFHPIKETVVEEPVEITPY [D20E], the figure is 2.35; as for KKREFRFHPIKETVVEEPVSITPY [D20S], 1.04. Consider KKREFRFHPIKETVVEEPVLITPY [D20L], for which the protein stability index was 1.56. With KKREFRFHPIKETVVEEPVRITPY [D20R], the protein stability index is 2.22. Turning to KKREFRFHPIKETVVEEPVTITPY [D20T], the protein stability index was 1.67.

In the case of KKREFRFHPIKETVVEEPVFITPY [D20F], the protein stability index came out at 2.48. The same measure for KKREFRFHPIKETVVEEPVNITPY [D20N]: 2.2; for KKREFRFHPIKETVVEEPVQITPY [D20Q]: 2.02; for KKREFRFHPIKETVVEEPVVITPY [D20V]: 1.65.

For KKREFRFHPIKETVVEEPVMITPY [D20M], the protein stability index was found to be 1.96. For KKREFRFHPIKETVVEEPVIITPY [D20I], the protein stability index stood at 1.7.

KKREFRFHPIKETVVEEPVPITPY [D20P]: the protein stability index is 1.79.

Consider KKREFRFHPIKETVVEEPVYITPY [D20Y], for which the protein stability index came out at 2.16. Consider KKREFRFHPIKETVVEEPVWITPY [D20W], for which the protein stability index was 1.6. As for KKREFRFHPIKETVVEEPVHITPY [D20H], the protein stability index was 2.25. Regarding KKREFRFHPIKETVVEEPVAITPY [D20A], the protein stability index amounted to 1.26. On to KKREFRFHPIKETVVEEPVGITPY [D20G], for which the protein stability index is 2.15. As for KKREFRFHPIKETVVEEPVCITPY [D20C], the figure is 1.61; as for KKREFRFHPIKETVAEEPVDITPY [V15A], 2.01; as for KKREFRFHPIKETVSEEPVDITPY [V15S], 1.58. KKREFRFHPIKETVIEEPVDITPY [V15I]: the protein stability index is 1.67. In the case of KKREFRFHPIKETVLEEPVDITPY [V15L], the protein stability index came out at 1.73. For KKREFRFHPIKETVPEEPVDITPY [V15P], the protein stability index is 2.13. As to KKREFRFHPIKETVQEEPVDITPY [V15Q], the protein stability index was 2. As to KKREFRFHPIKETVGEEPVDITPY [V15G], the protein stability index turned out to be 1.49. Turning to KKREFRFHPIKETVCEEPVDITPY [V15C], the protein stability index was 1.68. Turning to KKREFRFHPIKETVTEEPVDITPY [V15T], the protein stability index came out at 1.75. Regarding KKREFRFHPIKETVHEEPVDITPY [V15H], the protein stability index is 1.82. Take KKREFRFHPIKETVWEEPVDITPY [V15W]: the protein stability index was found to be 1.53.

On to KKREFRFHPIKETVREEPVDITPY [V15R], for which the protein stability index was 1.98. Turning to KKREFRFHPIKETVEEEPVDITPY [V15E], the protein stability index worked out at 2.41. Consider KKREFRFHPIKETVMEEPVDITPY [V15M], for which the protein stability index came out at 2.13. With KKREFRFHPIKETVKEEPVDITPY [V15K], the protein stability index was 1.39. The same measure for KKREFRFHPIKETVYEEPVDITPY [V15Y]: 1.84; for KKREFRFHPIKETVFEEPVDITPY [V15F]: 1.91. Regarding KKREFRFHPIKETVNEEPVDITPY [V15N], the protein stability index worked out at 1.75. For KKREFRFHPIKETVDEEPVDITPY [V15D], the protein stability index is 2.35. For KKREFRFHPIKEYVVEEPVDITPY [T13Y], the protein stability index came to 3.62. As to KKREFRFHPIKERVVEEPVDITPY [T13R], the protein stability index is 1.79. On to KKREFRFHPIKEQVVEEPVDITPY [T13Q], for which the protein stability index worked out at 1.96.

Turning to KKREFRFHPIKEPVVEEPVDITPY [T13P], the protein stability index came out at 1.75. On to KKREFRFHPIKEWVVEEPVDITPY [T13W], for which the protein stability index came to 2.56. As for KKREFRFHPIKESVVEEPVDITPY [T13S], the figure is 1.55; as for KKREFRFHPIKEVVVEEPVDITPY [T13V], 2.12; as for KKREFRFHPIKETYVEEPVDITPY [V14Y], 1.89. Consider KKREFRFHPIKETDVEEPVDITPY [V14D], for which the protein stability index amounted to 2.58.

Regarding KKREFRFHPIKETGVEEPVDITPY [V14G], the protein stability index was 1.63. Consider KKREFRFHPIKETEVEEPVDITPY [V14E], for which the protein stability index stood at 1.95. Consider KKREFRFHPIKETQVEEPVDITPY [V14Q], for which the protein stability index amounted to 3.65. KKREFRFHPIKETMVEEPVDITPY [V14M]: the protein stability index stood at 2.19.

For KKREFRFHPIKETAVEEPVDITPY [V14A], the protein stability index worked out at 1.52. Regarding KKREFRFHPIKETWVEEPVDITPY [V14W], the protein stability index is 1.91. For the variant KKREFRFHPIKETIVEEPVDITPY [V14I], the protein stability index is 1.91. For KKREFRFHPIKETTVEEPVDITPY [V14T], the protein stability index was found to be 1.42. KKREFRFHPIKETSVEEPVDITPY [V14S]: the protein stability index was 3.05.

As for KKREFRFHPIKETFVEEPVDITPY [V14F], the protein stability index came to 1.71. As for KKREFRFHPIKETCVEEPVDITPY [V14C], the protein stability index was 1.98. As for KKREFRFHPIKETKVEEPVDITPY [V14K], the protein stability index came to 1.53. On to KKREFRFHPIKETPVEEPVDITPY [V14P], for which the protein stability index stood at 1.64.

With KKREFRFHPIKETNVEEPVDITPY [V14N], the protein stability index was found to be 1.99. For the variant KKREFRFHPIKETLVEEPVDITPY [V14L], the protein stability index was found to be 1.82.

Consider KKREFRFHPIKETHVEEPVDITPY [V14H], for which the protein stability index was found to be 1.89. Take KKREFRFHPIKETRVEEPVDITPY [V14R]: the protein stability index was 1.35.

With KKREFRFHPIKETVVEEPVDIHPY [T22H], the protein stability index amounted to 2.23. As for KKREFRFHPIKETVVEEPVDIPPY [T22P], the figure is 1.86; as for KKREFRFHPIKETVVEEPVDIFPY [T22F], 2.57; as for KKREFRFHPIKETVVEEPVDIWPY [T22W], 1.3.

On to KKREFRFHPIKETVVEEPVDIQPY [T22Q], for which the protein stability index worked out at 1.93. KKREFRFHPIKETVVEEPVDIKPY [T22K]: the protein stability index was 1.88.

With KKREFRFHPIKETVVEEPVDINPY [T22N], the protein stability index was determined as 1.72. As to KKREFRFHPIKETVVEEPVDIMPY [T22M], the protein stability index was determined as 1.89.

As for KKREFRFHPIKETVVEEPVDIDPY [T22D], the protein stability index turned out to be 2.12. Regarding KKREFRFHPIKETVVEEPVDISPY [T22S], the protein stability index worked out at 2.33. With KKREFRFHPIKETVVEEPVDILPY [T22L], the protein stability index amounted to 2.33.

Values taken from the supplement of paper PMC10567573.
